PBMC binding (%) and Cell Internalization (EC50) data for 2 substances are collected here from patent US20250092134A1.

Assay [1] addresses TCR Vβ17 on T cells of PBMCs. The experiment in a line: flow cytometry on PBMCs, percent of cells stained. On the technique in general: A flow cytometer gives signals particle by particle.
In assay [2] the target is Vβ17 (on cells expressing Vβ17). The experiment in a line: cell-based or functional assay.
Chain of Vβ17 (on cells expressing Vβ17) (A0A075B6N1 22-114): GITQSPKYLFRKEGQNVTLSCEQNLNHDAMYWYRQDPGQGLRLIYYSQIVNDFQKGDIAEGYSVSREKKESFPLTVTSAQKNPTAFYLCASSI

Chain of TCR Vβ17 on T cells of PBMCs (A0A075B6N1 22-114): as above

“Goat anti mouse IgG PE, Southern Biotech, Cat: 1030-09 (antibody)” yielded a PBMC binding (%) in assay [1] of 0.13%.

Consider “Anti TCR Vβ17-PE Ab, Beckman Coulter, Cat: IM2048 (antibody)”, for which the Cell Internalization (EC50) in assay [2] is less than 0.07 nM. The same substance came in with a PBMC binding (%) in assay [1] of 3.4%.
